According to PMC9482650, “Quantitative fragmentomics allow affinity mapping of interactomes” (Nature Communications, 2022):

T1: APBA3_2, O96018
T1 sequence (O96018 480-570, limits assumed, looked up): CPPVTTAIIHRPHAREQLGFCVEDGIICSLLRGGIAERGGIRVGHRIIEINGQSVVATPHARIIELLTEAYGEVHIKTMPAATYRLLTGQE

T2: PDLIM3, Q53GG5
T2 sequence (Q53GG5 1-94, limits assumed, looked up): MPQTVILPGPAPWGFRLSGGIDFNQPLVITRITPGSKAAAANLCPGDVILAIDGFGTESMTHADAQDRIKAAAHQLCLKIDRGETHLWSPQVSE

T3: MLLT4, P55196
T3 sequence (P55196 1002-1103, limits assumed, looked up): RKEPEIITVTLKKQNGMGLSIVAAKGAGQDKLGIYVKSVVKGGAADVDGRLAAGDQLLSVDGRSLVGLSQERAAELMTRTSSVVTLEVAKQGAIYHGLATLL

T4: PARD6G, Q9BYG4
T4 sequence (Q9BYG4 153-261, limits assumed, looked up): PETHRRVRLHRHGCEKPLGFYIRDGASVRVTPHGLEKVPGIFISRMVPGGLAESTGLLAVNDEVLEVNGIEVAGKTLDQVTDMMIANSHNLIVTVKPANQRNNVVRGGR

T5: NHERF1_1, O14745
T5 sequence (O14745 9-104, limits assumed, looked up): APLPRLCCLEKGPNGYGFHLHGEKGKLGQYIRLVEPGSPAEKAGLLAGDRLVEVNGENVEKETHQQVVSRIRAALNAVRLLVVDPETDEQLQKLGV

T6: SNTB2, Q13425
T6 sequence (Q13425 110-208, limits assumed, looked up): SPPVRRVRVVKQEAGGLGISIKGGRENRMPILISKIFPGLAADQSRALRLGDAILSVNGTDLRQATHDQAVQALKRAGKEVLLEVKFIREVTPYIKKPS

T7: MPDZ_3, O75970
T7 sequence (O75970 372-473, limits assumed, looked up): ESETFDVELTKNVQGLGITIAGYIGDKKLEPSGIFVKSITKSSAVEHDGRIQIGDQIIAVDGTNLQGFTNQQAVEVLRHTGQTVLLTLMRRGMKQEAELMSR

T8: PDZD7_1, Q9H5P4
T8 sequence (Q9H5P4 81-178, limits assumed, looked up): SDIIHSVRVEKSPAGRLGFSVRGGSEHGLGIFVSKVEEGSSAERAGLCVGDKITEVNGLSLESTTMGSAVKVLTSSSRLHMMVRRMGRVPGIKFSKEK

T9: PDZD11, Q5EBL8
T9 sequence (Q5EBL8 42-139, limits assumed, looked up): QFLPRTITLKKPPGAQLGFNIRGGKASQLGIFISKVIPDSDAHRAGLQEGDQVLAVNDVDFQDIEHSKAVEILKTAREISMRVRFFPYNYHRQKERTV

T10: PDZD7_2, Q9H5P4
T10 sequence (Q9H5P4 205-303, limits assumed, looked up): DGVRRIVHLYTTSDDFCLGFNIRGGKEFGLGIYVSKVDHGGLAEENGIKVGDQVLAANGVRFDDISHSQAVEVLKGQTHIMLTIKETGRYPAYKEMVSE

T11: SIPA1L3, O60292
T11 sequence (O60292 961-1052, limits assumed, looked up): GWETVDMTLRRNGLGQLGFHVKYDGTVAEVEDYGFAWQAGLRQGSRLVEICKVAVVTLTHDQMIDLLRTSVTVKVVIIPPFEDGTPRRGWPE

T12: PDZRN3_2, Q9UPQ7
T12 sequence (Q9UPQ7 414-513, limits assumed, looked up): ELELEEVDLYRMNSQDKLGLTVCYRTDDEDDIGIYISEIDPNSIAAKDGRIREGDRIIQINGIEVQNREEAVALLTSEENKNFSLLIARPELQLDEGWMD

T13: LNX2_4, Q8N448
T13 sequence (Q8N448 595-690, limits assumed, looked up): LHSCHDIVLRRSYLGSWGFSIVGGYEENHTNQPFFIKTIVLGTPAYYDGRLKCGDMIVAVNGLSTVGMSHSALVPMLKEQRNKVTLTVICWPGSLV

B1: RALBP1, Q15311 (peptide)
chain: PSRDRKETSI
B2: FZD7, O75084 (peptide)
chain: SHSSKGETAV

Assays:
Experiment in all cases: holdup assay
Set-up in all cases: key: below the threshold = too weak to quantify, mostly under pKd 3.1 to 4
Settings in all cases: plain residues with an end cap or a label only (N-terminal biotin on a linker: ttds)
APBA3_2, O96018 = target: T1, APBA3_2, O96018
DVL2, O14641 = target: DVL2, O14641
DVL2, O14641, sequence (O14641 260-359): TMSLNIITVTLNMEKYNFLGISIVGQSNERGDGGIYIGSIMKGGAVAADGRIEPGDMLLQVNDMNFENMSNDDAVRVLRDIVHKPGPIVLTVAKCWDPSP

PDLIM3, Q53GG5 = target: T2, PDLIM3, Q53GG5
MLLT4, P55196 = target: T3, MLLT4, P55196
PARD6G, Q9BYG4 = target: T4, PARD6G, Q9BYG4
CNKSR3, Q6P9H4 = target: CNKSR3, Q6P9H4
CNKSR3, Q6P9H4, sequence (Q6P9H4 203-303): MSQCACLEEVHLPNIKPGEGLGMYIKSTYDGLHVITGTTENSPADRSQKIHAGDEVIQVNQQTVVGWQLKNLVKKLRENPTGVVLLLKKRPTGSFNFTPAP

NHERF4_3, Q86UT5 = target: NHERF4_3, Q86UT5
NHERF4_3, Q86UT5, sequence (Q86UT5 325-412): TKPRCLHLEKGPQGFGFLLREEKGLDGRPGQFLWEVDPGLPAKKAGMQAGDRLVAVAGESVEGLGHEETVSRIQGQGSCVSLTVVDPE

SCRIB_4, Q14160 = target: SCRIB_4, Q14160
SCRIB_4, Q14160, sequence (Q14160 1095-1204): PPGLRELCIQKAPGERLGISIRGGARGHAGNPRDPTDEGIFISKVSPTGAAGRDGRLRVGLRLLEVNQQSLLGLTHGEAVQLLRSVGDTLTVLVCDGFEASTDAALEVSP

NHERF1_1, O14745 = target: T5, NHERF1_1, O14745
SNTB2, Q13425 = target: T6, SNTB2, Q13425
LMO7, Q8WWI1 = target: LMO7, Q8WWI1
LMO7, Q8WWI1, sequence (Q8WWI1 1037-1138): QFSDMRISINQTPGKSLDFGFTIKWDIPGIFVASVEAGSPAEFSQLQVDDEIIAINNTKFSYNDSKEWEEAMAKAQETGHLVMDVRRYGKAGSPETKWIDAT

NHERF2_1, Q15599 = target: NHERF2_1, Q15599
NHERF2_1, Q15599, sequence (Q15599 9-91): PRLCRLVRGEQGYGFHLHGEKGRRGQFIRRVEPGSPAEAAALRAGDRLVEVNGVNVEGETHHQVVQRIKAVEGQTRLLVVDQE

PARD3B_3, Q8TEW8 = target: PARD3B_3, Q8TEW8
PARD3B_3, Q8TEW8, sequence (Q8TEW8 490-594): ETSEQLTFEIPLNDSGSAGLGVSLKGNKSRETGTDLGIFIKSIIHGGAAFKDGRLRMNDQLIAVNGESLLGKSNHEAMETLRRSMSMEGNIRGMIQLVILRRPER

MPDZ_3, O75970 = target: T7, MPDZ_3, O75970
PDZD7_1, Q9H5P4 = target: T8, PDZD7_1, Q9H5P4
PDZD11, Q5EBL8 = target: T9, PDZD11, Q5EBL8
PDZD7_2, Q9H5P4 = target: T10, PDZD7_2, Q9H5P4
SIPA1L3, O60292 = target: T11, SIPA1L3, O60292
TJP1_1, Q07157 = target: TJP1_1, Q07157
TJP1_1, Q07157, sequence (Q07157 18-120): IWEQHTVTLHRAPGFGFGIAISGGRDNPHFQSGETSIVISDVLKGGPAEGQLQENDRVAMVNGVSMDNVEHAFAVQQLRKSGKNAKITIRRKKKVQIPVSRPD

PDZRN3_2, Q9UPQ7 = target: T12, PDZRN3_2, Q9UPQ7
RIMS2, Q9UQ26 = target: RIMS2, Q9UQ26
RIMS2, Q9UQ26, sequence (Q9UQ26 637-758): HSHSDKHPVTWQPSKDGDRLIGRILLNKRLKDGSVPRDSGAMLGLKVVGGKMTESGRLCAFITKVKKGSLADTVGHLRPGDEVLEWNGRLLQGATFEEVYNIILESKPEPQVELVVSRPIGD

SDCBP_1, O00560 = target: SDCBP_1, O00560
SDCBP_1, O00560, sequence (O00560 111-198): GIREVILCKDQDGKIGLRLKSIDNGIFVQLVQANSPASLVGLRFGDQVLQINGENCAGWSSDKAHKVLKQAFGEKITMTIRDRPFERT

MAGI3_6, Q5TCQ9 = target: MAGI3_6, Q5TCQ9
MAGI3_6, Q5TCQ9, sequence (Q5TCQ9 1014-1103): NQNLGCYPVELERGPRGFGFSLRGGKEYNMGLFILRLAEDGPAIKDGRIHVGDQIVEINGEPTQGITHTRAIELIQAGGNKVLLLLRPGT

LNX2_4, Q8N448 = target: T13, LNX2_4, Q8N448
PARD3_1, Q8TEW0 = target: PARD3_1, Q8TEW0
PARD3_1, Q8TEW0, sequence (Q8TEW0 264-372): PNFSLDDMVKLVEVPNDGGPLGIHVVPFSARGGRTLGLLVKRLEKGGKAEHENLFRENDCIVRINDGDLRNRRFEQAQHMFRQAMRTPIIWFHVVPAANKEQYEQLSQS

| Binder | pKd (APBA3_2, O96018) | pKd (DVL2, O14641) | pKd (PDLIM3, Q53GG5) | pKd (MLLT4, P55196) | pKd (PARD6G, Q9BYG4) | pKd (CNKSR3, Q6P9H4) | pKd (NHERF4_3, Q86UT5) | pKd (SCRIB_4, Q14160) | pKd (NHERF1_1, O14745) | pKd (SNTB2, Q13425) | pKd (LMO7, Q8WWI1) | pKd (NHERF2_1, Q15599) | pKd (PARD3B_3, Q8TEW8) | pKd (MPDZ_3, O75970) | pKd (PDZD7_1, Q9H5P4) | pKd (PDZD11, Q5EBL8) | pKd (PDZD7_2, Q9H5P4) | pKd (SIPA1L3, O60292) | pKd (TJP1_1, Q07157) | pKd (PDZRN3_2, Q9UPQ7) | other results |
| --- | --- | --- | --- | --- | --- | --- | --- | --- | --- | --- | --- | --- | --- | --- | --- | --- | --- | --- | --- | --- | --- |
| B1 | below the threshold | below the threshold | below the threshold | below the threshold | below the threshold | below the threshold | below the threshold | below the threshold | below the threshold | 3.94 | below the threshold | below the threshold | below the threshold | below the threshold | below the threshold | below the threshold | below the threshold | below the threshold | below the threshold | below the threshold | pKd (RIMS2, Q9UQ26): below the threshold; pKd (SDCBP_1, O00560): below the threshold; pKd (MAGI3_6, Q5TCQ9): below the threshold; pKd (LNX2_4, Q8N448): below the threshold; pKd (PARD3_1, Q8TEW0): below the threshold |
| B2 | below the threshold | below the threshold | below the threshold | below the threshold | below the threshold | below the threshold | below the threshold | below the threshold | below the threshold | below the threshold | below the threshold | below the threshold | below the threshold | below the threshold | below the threshold | below the threshold | below the threshold | below the threshold | below the threshold | below the threshold | pKd (RIMS2, Q9UQ26): below the threshold; pKd (SDCBP_1, O00560): below the threshold; pKd (MAGI3_6, Q5TCQ9): 4.71; pKd (LNX2_4, Q8N448): below the threshold; pKd (PARD3_1, Q8TEW0): below the threshold |
